Data: patent US8865222B2, “Beta-casein assemblies for enrichment of food and beverages and methods of preparation thereof” (Technion Research and Development Foundation Ltd., priority 2008, dated 2014)
“Also recorded” adds a separate entry of the source.

Experiments:
Assay type in all cases: physicochemical
[1] = Storage stability of beta-casein assembly solutions
Description: Preparation of beta-casein assemblies: weighted amounts of lyophilized bovine beta-casein are dissolved in low-pH solution (e.g. ˜6% by weight of lactic acid solution or hydrochloride acid solution, ˜pH 2.1), typically at concentrations ranging from 0.1 mg/mL up to at least 50 mg/ml, to the desired pH (2.5-2.8), below the pI. The pH can be adjusted to the desired values using appropriate buffers. Mixing is done at room temperature, and the solution is equilibrated at 4° C. for ˜36 hr, allowing complete solubilization and formation of the protein assemblies. Thereafter, the solutions can be held at any temperature between 1 and 60° C. Similarly, to prepare beta-casein micelles at neutral pH, weighted amounts of lyophilized protein are added to a buffer at neutral pH (e.g., HEPES buffer, or PBS), at concentration ranging from 0.1 mg/ml to ˜40 mg/ml. Complete solubilization of the protein is achieved within ˜36 hr, at 4° C. A transparent solution is obtained, containing unique nano-sized beta-casein assemblies. The protein solutions are filtered through a porous membrane of 0.45 micron pore size. The beta-casein concentration was determined by measuring the absorbance at 280 nm by an Ultrospec 2000 UV/Visible spectrophotometer (Pharmacia Biotech, England), using an extinction coefficient of 4.6(1%) mM^−1cm^−1. […]

[2] = Dynamic light scattering (DLS) particle size; conditions: pH 2.6, pure beta-casein, FIG. 12
Description: The pure beta-casein micelles remain small, below 80 nm, consistent with the fact the solution remains transparent.
The particle size distribution and the turbidity of a vitamin D loaded beta-casein micellar solutions at pH 7.0 and pH 2.5 as a function of beta-casein concentration are shown in FIGS. 15 and 16 respectively. Vitamin D concentration in this experiment was kept constant (82.5 μg/ml; 0.2 mM) and the beta-casein concentration was raised gradually from 0 to 2% by weight (0 to 0.8 mM). […] This value is relatively low and the solutions looked transparent to the human eye.

[3] = Cryo-TEM of beta-casein micelles and vitamin D loaded assemblies
Description: • Cryo-TEM: Specimens were prepared in the controlled environment vitrification system (CEVS) (Bellare et al. Electron Microsc. Technique, 1988, 10; 87-111) at 24° C. and 100% relative humidity to avoid loss of volatiles. First, the solutions were incubated in the CEVS at the desired temperature for 1 h. Then, a 7 μL drop of each solution was placed on a TEM copper grid covered with a perforated carbon film (Pelco International) and blotted with filter paper to form a thin liquid film of the sample (100-200 nm thick). The thinned sample was plunged into liquid ethane at its freezing temperature (−183° C.) to form a vitrified specimen and then transferred to liquid nitrogen ([…]) for storage. The vitrified specimens were examined in a Philips CM120 transmission electron microscope operating at an accelerating voltage of 120 kV. We used an Oxford CT3500 (Oxford Instruments) cryoholder that maintained the specimens below −175° C. during sample transfer and observation. Images were recorded digitally on a cooled Gatan MultiScan 791 CCD camera using DigitalMicrograph 3.1 software (Gatan) in the low-dose imaging mode to minimize beam exposure and electron-beam radiation damage. • ITC: ITC measurements were performed with a VP-ITC calorimeter (MicroCal) at a temperature of 24° C. The reaction cell (V=1.43 mL) was filled with degassed solvent (lactic acid at pH 2.6, or phosphate buffer at pH 7.0). The injector-stirrer syringe (289 μL) was loaded with a beta-casein micellar solution (20 mg/mL). The micellar solution was injected into the reaction cell in 28 steps of 10 μL aliquots each, and the heat flow was measured. During the titration, the stirring speed was 310 rpm. The duration of each injection was 20 s, and the equilibration time between consecutive injections was 3 min. Such an interval was sufficient to equilibrate the reaction cell after every injection. Each experiment was performed at least three times. Calorimetric data analysis was carried out using Origin 5.0 software (MicroCal). • Analytical Ultracentrifugation: Sedimentation equilibrium experiments were performed at 24° C. using a Beckman Optima XL-A (Palo Alto, Calif.) analytical centrifuge at 6000, 10000, and 12000 rpm for the low-pH solutions and at 4000, 6000, and 8000 rpm for the pH 7.0 solutions. Data were collected at 280 nm. The beta-casein solutions were studied at concentrations ranging from 0.2 to 10.0 mg/mL at pH 2.6 and from 0.2 to 2 mg/mL at pH 7.0 and an ionic strength of 0.1. […] The average apparent molecular weight of the micelles at the various protein concentrations was calculated following methods well known in the art (The partial specific volume vj of the solute was taken to be 0.742 cm3/g3, and a solution density F of 1.0044 g/cm3 was measured). At beta-casein concentrations of 2 mg/mL and above under low pH conditions, the plot of the natural logarithm of the measured absorbance versus the square of the radius from the axis of rotation was not linear. To estimate Nagg, the limiting slope toward the outer edge of the sample cell was used to provide dln(c)/dr^2. The molecular weight calculated using this slope was divided by the monomer molecular weight calculated from the beta-casein amino acid sequence (24000).
• Characterization of the beta-casein micelles by cryo-TEM: The structural characteristics of the micelles in the two pH environments were studied by cryo-TEM and SAXS. Cryo-TEM was used to determine the shape of the micelles and to estimate their dimensions between 4 and 40° C. This information was further used to accurately calculate by SAXS the micelles' dimensions and to study how the size and shape are affected by temperature. SAXS measurements also provided the critical micelle concentration (CMC) and the micelle aggregation numbers as a function of temperature. […]

[4] = lactic acid solution pH 2.6, 4-40 °C

B1: beta-casein: lyophilized bovine beta-casein (~24 kDa milk protein) self-assembled into nano-sized micelles at low or neutral pH (protein, UniProt P02666 16-224, looked up)
Beta-casein: RELEELNVPGEIVESLSSSEESITRINKKIEKFQSEEQQQTEDELQDKIHPFAQTQSLVYPFPGPIPNSLPQNIPPLTQTPVVVPPFLQPEVMGVSKVKEAMAPKHKEMPFPKYPVEPFTESQSLTLTDVENLHLPLPLLQSWMHQPHQPLPPTVMFPPQSVLSLSQSKVLPVPQKAVPYPQRDMPIQAFLLYQEPVLGPVRGPFPIIV
colloidal / storage stability of sterile solution ([1]; sterile): at least several months; also recorded: colloidally stable for months | storage stability of the solution ([1]; stored at 4 °C): several weeks | mean size of the assemblies [2]: below 80 nm | micelle shape ([3]; 20 mg/mL, pH 6.7, 0.05M NaCl, 4 °C and 10 °C): Flat micelles | micelle shape ([3]; 20 mg/mL, pH 6.7, 0.05M NaCl, 16, 25 and 40 °C): oblate micelles | micelle shape ([3]; 20 mg/mL, pH 6.7, 0.05M NaCl, 60 °C): Relatively spheroidal micelles | length of elongated surfaces of micelles [3, 4]: 20-25 nm | micelle shape [3, 4]: flat disk-like micelles | micelle thickness [3, 4]: 3-4 nm | width of micelles ([3]; pH 2.6): about 3.5 nm
